Measured values: patent US20240034757A1 (OXFORD UNIVERSITY INNOVATION, published 2024)
Where a chain is given by its changes, count along the chain named. Read-outs that look alike come from different tables or passages of the source.

T1: CXCL14_HUMAN (human, UniProt O95715 35-111)
T1 sequence: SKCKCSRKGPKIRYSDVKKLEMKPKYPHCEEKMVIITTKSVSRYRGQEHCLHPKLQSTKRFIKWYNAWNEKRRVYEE

T2: CXCL7_HUMAN (human, UniProt P02775 59-128)
T2 sequence: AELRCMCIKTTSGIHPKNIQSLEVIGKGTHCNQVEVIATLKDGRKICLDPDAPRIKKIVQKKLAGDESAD

T3: CXCL8_HUMAN (human, UniProt P10145 28-99)
T3 sequence: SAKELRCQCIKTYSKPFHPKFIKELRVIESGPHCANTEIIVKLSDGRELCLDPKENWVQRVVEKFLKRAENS

T4: CXCL4_HUMAN (human, UniProt P02776 32-101)
T4 sequence: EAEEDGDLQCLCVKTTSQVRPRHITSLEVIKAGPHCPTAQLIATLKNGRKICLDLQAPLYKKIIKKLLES

T5: CXCL5_HUMAN (human, UniProt P42830 41-114)
T5 sequence: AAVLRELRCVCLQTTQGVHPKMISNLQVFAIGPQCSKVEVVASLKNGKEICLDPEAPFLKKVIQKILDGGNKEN

T6: CXCL11_HUMAN (human, UniProt O14625 22-94)
T6 sequence: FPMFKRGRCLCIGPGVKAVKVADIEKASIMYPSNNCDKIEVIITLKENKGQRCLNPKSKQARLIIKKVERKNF

T7: CXCL10_HUMAN (human, UniProt P02778 22-98)
T7 sequence: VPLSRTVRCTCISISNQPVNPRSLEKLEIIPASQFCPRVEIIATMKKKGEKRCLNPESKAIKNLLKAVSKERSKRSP

T8: CXCL13_HUMAN (human, UniProt O43927 23-109)
T8 sequence: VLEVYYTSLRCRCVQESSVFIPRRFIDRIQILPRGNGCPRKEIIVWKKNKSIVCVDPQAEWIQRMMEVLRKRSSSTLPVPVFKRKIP

T9: CXCL6_HUMAN (human, UniProt P80162 38-114)
T9 sequence: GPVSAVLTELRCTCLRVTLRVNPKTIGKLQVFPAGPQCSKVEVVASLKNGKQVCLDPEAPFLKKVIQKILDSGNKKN

T10: CCL5_HUMAN (human, UniProt P13501 24-91)
T10 sequence: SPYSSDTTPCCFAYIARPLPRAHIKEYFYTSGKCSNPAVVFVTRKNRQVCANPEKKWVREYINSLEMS

T11: P467_RHIPU (Rhipicephalus pulchellus, UniProt L7M8Z8 22-127)
T11 sequence: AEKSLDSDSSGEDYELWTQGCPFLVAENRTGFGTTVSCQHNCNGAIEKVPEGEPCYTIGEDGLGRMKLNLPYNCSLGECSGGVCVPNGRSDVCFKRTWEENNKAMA

T12: P546_AMBCA (Amblyomma cajennense, UniProt A0A023FBW7 22-118)
T12 sequence: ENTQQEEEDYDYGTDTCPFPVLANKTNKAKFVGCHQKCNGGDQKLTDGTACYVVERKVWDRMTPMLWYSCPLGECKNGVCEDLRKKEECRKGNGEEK

T13: P1180_AMBTR (Amblyomma triste, UniProt A0A023G6B6 26-116)
T13 sequence: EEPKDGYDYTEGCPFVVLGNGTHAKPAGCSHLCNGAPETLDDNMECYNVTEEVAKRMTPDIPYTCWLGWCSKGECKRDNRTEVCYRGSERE

T14: P1181_AMBMA (Amblyomma maculatum, UniProt G3MIX6 26-115)
T14 sequence: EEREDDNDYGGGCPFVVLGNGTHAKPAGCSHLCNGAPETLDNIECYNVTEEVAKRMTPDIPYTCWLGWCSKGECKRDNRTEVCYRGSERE

T15: P1182_AMBMA (Amblyomma maculatum, UniProt G3MJ83 27-115)
T15 sequence: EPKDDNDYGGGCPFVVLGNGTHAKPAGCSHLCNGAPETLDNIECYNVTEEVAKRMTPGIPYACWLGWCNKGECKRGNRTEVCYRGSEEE

T16: P1183_AMBTR (Amblyomma triste, UniProt A0A023G9N9 26-115)
T16 sequence: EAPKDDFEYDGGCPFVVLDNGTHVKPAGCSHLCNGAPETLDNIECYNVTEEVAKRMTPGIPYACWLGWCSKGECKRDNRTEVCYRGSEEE

T17: P1243_AMBAM (Amblyomma americanum, UniProt A0A0C9S461 26-123)
T17 sequence: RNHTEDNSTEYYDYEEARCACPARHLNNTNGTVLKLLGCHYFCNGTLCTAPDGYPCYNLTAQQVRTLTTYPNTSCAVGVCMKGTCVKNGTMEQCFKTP

T18: P672_RHIPU (Rhipicephalus pulchellus, UniProt L7MC74 22-125)
T18 sequence: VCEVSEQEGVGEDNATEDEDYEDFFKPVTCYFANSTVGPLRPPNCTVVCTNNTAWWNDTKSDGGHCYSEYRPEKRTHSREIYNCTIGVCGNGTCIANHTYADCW

T19: P974_AMBCA (Amblyomma cajennense, UniProt A0A023FDY8 22-118)
T19 sequence: T12 sequence with E8Q, S69E, E88D

T20: P985_AMBPA (Amblyomma parvum, UniProt A0A023FT45 25-132)
T20 sequence: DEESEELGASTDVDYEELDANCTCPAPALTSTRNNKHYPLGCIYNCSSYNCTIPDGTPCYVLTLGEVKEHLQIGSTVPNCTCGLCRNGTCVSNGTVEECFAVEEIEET

T21: P991_AMBCA (Amblyomma cajennense, UniProt A0A023FFD0 29-136)
T21 sequence: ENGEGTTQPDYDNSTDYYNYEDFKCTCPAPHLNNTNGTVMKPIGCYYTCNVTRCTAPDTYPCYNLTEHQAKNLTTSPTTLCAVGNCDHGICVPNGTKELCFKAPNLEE

T22: P1134_IXORI (Ixodes ricinus, UniProt A0A0K8RAI0 32-135)
T22 sequence: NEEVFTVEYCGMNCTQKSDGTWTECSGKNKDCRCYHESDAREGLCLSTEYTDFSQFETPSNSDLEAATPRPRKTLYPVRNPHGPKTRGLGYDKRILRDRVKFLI

B1: CCL23_HUMAN (ligand)
chain: RVTKDAETEFMMSKLPLENPVLLDRFHATSADCCISYTPRSIPCSLLESYFETNSECSKPGVIFLTKKGRRFCANPSDKQVQVCMRMLKLDTRIKTRKN
B2: P1090_IXORI (other)
chain: GSKELSGPESSENSIEAAFCDTNCTEGTDGVWSGCSAGCFCVHVGNSTVGRCMTFNGVDGG
B3: P1170_IXORI (other)
chain: LGDEDQLFSVEYCGTNCTQQDDGKWTPCSGKNGKCKCYHEDGKRYGLCLYTEYTDFSQYPNPEGSEIENTRPRP
B4: P983_AMBCA (other)
chain: EDTGTEDDFDYGNTGCPFPVLGNYKSNMTKPVGCKNKCGSGYEVLNDTTPCYVIDQKVFNNMVPLRQYSKCPLGFCENGECKPNDQAEDCYKGREEQK
B5: P1063_AMBTR (other)
chain: QSEVGKNVPGCGDTETLEAPPQEKPPYYEYKDEEGCTQKVLESWFQAGERSTGRGQKKRGHGRRPSRVLRTVDCRKNCTVGITALPDGHLCLVPRGDPFTRGGAIKYGCYLGDCASGHCQHRYETVSCRLPAPDTTAKPYYVTPEK
B6: CCL3L1_HUMAN (ligand)
chain: APLAADTPTACCFSYTSRQIPQNFIADYFETSSQCSKPSVIFLTKRGRQVCADPSEEWVQKYVSDLELSA
B7: CCL14_HUMAN (ligand)
chain: TESSSRGPYHPSECCFTYTTYKIPRQRIMDYYETNSQCSKPGIVFITKRGHSVCTNPSDKWVQDYIKDMKEN
B8: CCL13_HUMAN (ligand)
chain: not shown
B9: CXCL9_HUMAN (ligand)
chain: TPVVRKGRCSCISTNQGTIHLQSLKDLKQFAPSPSCEKIEIIATLKNGVQTCLNPDSADVKELIKKWEKQVSQKKKQKNGKKHQKKKVLKVRKSQRSRQKKTT

Assays:
[1] = target: BK1.1FITC; experiment: fluorescence polarisation, 50 nM peptide
[2] = target: B9; experiment: BLI
[3] = target: CXCL12_HUMAN (human, UniProt P48061 22-89); experiment: BLI
[4] = target: T1, CXCL14_HUMAN; experiment: BLI
[5] = target: T2, CXCL7_HUMAN; experiment: BLI [Cont.]
[6] = target: T3, CXCL8_HUMAN; experiment: BLI [Cont.]
[7] = target: T4, CXCL4_HUMAN; experiment: BLI [Cont.]
[8] = target: T5, CXCL5_HUMAN; experiment: BLI [Cont.]
[9] = target: T6, CXCL11_HUMAN; experiment: yeast surface display FACS re-test
[10] = target: T7, CXCL10_HUMAN; experiment: BLI
[11] = target: T8, CXCL13_HUMAN; experiment: BLI
[12] = target: T9, CXCL6_HUMAN; experiment: BLI [Cont.]
[13] = target: T3, CXCL8_HUMAN; experiment: yeast surface display FACS re-test
[14] = target: CCL2_HUMAN (human, UniProt P13500 24-99); experiment: cell-based or functional assay
[15] = target: T10, CCL5_HUMAN; experiment: yeast surface display FACS
[16] = target: T11, P467_RHIPU; experiment: BLI
[17] = target: T12, P546_AMBCA; experiment: BLI
[18] = target: T13, P1180_AMBTR; experiment: BLI
[19] = target: T14, P1181_AMBMA; experiment: BLI
[20] = target: T15, P1182_AMBMA; experiment: BLI
[21] = target: T16, P1183_AMBTR; experiment: BLI
[22] = target: T17, P1243_AMBAM; experiment: BLI
[23] = target: T18, P672_RHIPU; experiment: BLI
[24] = target: T19, P974_AMBCA; experiment: BLI
[25] = target: B4; experiment: BLI
[26] = target: T20, P985_AMBPA; experiment: BLI
[27] = target: T21, P991_AMBCA; experiment: BLI
[28] = target: T17, P1243_AMBAM; experiment: BLI; remark: listed apart in the source
[29] = target: T22, P1134_IXORI; experiment: BLI

Chain of CXCL12_HUMAN (P48061 22-89 limits assumed): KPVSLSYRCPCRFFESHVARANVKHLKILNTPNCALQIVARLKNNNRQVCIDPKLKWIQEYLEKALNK
Chain of CCL2_HUMAN (P13500 24-99 limits assumed): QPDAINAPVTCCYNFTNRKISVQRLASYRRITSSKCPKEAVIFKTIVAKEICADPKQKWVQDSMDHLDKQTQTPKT

| Binder | binding result [1] | Kd [16] [nM] | Kd [17] [nM] | Kd [18] [nM] | Kd [19] [nM] | Kd [20] [nM] | Kd [22] [nM] | Kd [24] [nM] | Kd [25] [nM] | Kd [27] [nM] | also measured |
| --- | --- | --- | --- | --- | --- | --- | --- | --- | --- | --- | --- |
| B1 | no binding (tested: 1 µM) |  |  |  |  |  |  |  |  |  |  |
| B2 |  |  |  |  |  |  |  |  |  |  | binding result [2]: no binding (tested: 300 nM); binding result [3]: no binding (tested: 300 nM); binding result [4]: no binding (tested: 300 nM); binding result [5]: no binding (tested: 300 nM); binding result [6]: no binding (tested: 300 nM); binding result [7]: no binding (tested: 300 nM); Kd [8]: 43 nM; % cells over threshold fluorescence [9]: 32% |
| B3 |  |  |  |  |  |  |  |  |  |  | binding result [2]: no binding (tested: 300 nM); binding result [10]: no binding (tested: 300 nM); binding result [3]: no binding (tested: 300 nM); binding result [11]: no binding (tested: 300 nM); binding result [4]: no binding (tested: 300 nM); binding result [8]: no binding (tested: 300 nM); binding result [12]: no binding (tested: 300 nM); % cells over threshold fluorescence [13]: 81% |
| B4 |  |  |  |  |  |  |  |  |  |  | IC50, THP1 cell migration [14]: 5.95 nM |
| B5 |  |  |  |  |  |  |  |  |  |  | binding result [15]: binds |
| B6 | no binding (tested: 1 µM) | 0.524 | 15 | 2.2 | 3.3 | 9.5 | 5.05 | 13.1 | 2.1 | 1.4 | Kd [21]: 110 nM; Kd [23]: 2.7 nM; Kd [26]: 7.5 nM; Kd [28]: 5.04 nM |
| B7 | no binding (tested: 1 µM) | 4.13 | 28 | 4.4 | 47 | 50 | 0.816 | 49.1 | 81 | 0.43 | Kd [23]: 5.5 nM |
| B8 | no binding (tested: 1 µM) | 2.56 | 13 | 9 | 19 | 56 | 0.788 | 22.9 | 17 | 0.419 | Kd [21]: 5.7 nM; Kd [26]: 89 nM |
| B9 |  |  |  |  |  |  |  |  |  |  | binding result [29]: no binding (tested: 300 nM) |
